Data on 2 variants can be found in IntAct's records for PubMed 16763556.

First the molecules themselves.
B1: DNA polymerase iota (Homo sapiens), Q9UNA4 (parent)
chain: MEKLGVEPEEEGGGDDDEEDAEAWAMELADVGAAASSQGVHDQVLPTPNASSRVIVHVDLDCFYAQVEMISNPELKDKPLGVQQKYLVVTCNYEARKLGVKKLMNVRDAKEKCPQLVLVNGEDLTRYREMSYKVTELLEEFSPVVERLGFDENFVDLTEMVEKRLQQLQSDELSAVTVSGHVYNNQSINLLDVLHIRLLVGSQIAAEMREAMYNQLGLTGCAGVASNKLLAKLVSGVFKPNQQTVLLPESCQHLIHSLNHIKEIPGIGYKTAKCLEALGINSVRDLQTFSPKILEKELGISVAQRIQKLSFGEDNSPVILSGPPQSFSEEDSFKKCSSEVEAKNKIEELLASLLNRVCQDGRKPHTVRLIIRRYSSEKHYGRESRQCPIPSHVIQKLGTGNYDVMTPMVDILMKLFRNMVNVKMPFHLTLLSVCFCNLKALNTAKKGLIDYYLMPSLSTTSRSGKHSFKMKDTHMEDFPKDKETNRDFLPSGRIESTRTRESPLDTTNFSKEKDINEFPLCSLPEGVDQEVFKQLPVDIQEEILSGKSREKFQGKGSVSCPLHASRGVLSFFSKKQMQDIPINPRDHLSSSKQVSSVSPCEPGTSGFNSSSSSYMSSQKDYSYYLDNRLKDERISQGPKEPQGFHFTNSNPAVSAFHSFPNLQSEQLFSRNHTTDSHKQTVATDSHEGLTENREPDSVDEKITFPSDIDPQVFYELPEAVQKELLAEWKRAGSDFHIGHK
B2: DNA polymerase eta (Homo sapiens), Q9Y253 (parent)
chain: MATGQDRVVALVDMDCFFVQVEQRQNPHLRNKPCAVVQYKSWKGGGIIAVSYEARAFGVTRSMWADDAKKLCPDLLLAQVRESRGKANLTKYREASVEVMEIMSRFAVIERASIDEAYVDLTSAVQERLQKLQGQPISADLLPSTYIEGLPQGPTTAEETVQKEGMRKQGLFQWLDSLQIDNLTSPDLQLTVGAVIVEEMRAAIERETGFQCSAGISHNKVLAKLACGLNKPNRQTLVSHGSVPQLFSQMPIRKIRSLGGKLGASVIEILGIEYMGELTQFTESQLQSHFGEKNGSWLYAMCRGIEHDPVKPRQLPKTIGCSKNFPGKTALATREQVQWWLLQLAQELEERLTKDRNDNDRVATQLVVSIRVQGDKRLSSLRRCCALTRYDAHKMSHDAFTVIKNCNTSGIQTEWSPPLTMLFLCATKFSASAPSSSTDITSFLSSDPSSLPKVPVTSSEAKTQGSGPAVTATKKATTSLESFFQKAAERQKVKEASLSSLTAPTQAPMSNSPSKPSLPFQTSQSTGTEPFFKQKSLLLKQKQLNNSSVSSPQQNPWSNCKALPNSLPTEYPGCVPVCEGVSKLEESSKATPAEMDLAHNSQSMHASSASKSVLEVTQKATPNPSLLAAEDQVPCEKCGSLVPVWDMPEHMDYHFALELQKSFLQPHSSNPQVVSAVSHQGKRNPKSPLACTNKRPRPEGMQTLESFFKPLTH

The first experiment covers variants of B1. The following applies: with ubc_human UBC.
With P717R, the “effect of a mutation on the interaction” value is on record as “decreasing interaction strength”.

Another experiment covers variants of B2. The settings on record: with ubc_human UBC.
Regarding H654A, the “effect of a mutation on the interaction” value was “disrupting interaction”.
